From article PMC12703665, “A Trifunctional, Rare-Earth Theranostic Chelator Platform to Enable Diagnostic Nuclear Imaging, Surgical Resection, and Radiotherapy” (Journal of the American Chemical Society, 2025)

Columns and labels:
in vivo = conditions: male, athymic nude, mouse, intravenous, total radioactivity, 2 h post injection, n = 4
Description: (§1) For in vivo evaluation, athymic nude mice-bearing bilateral PC-3 PIP/flu (PSMA^+/PSMA^–) tumor xenografts were used (Figure ).
(§2) 5.1.1 Urine metabolite analysis
(§3) Metabolite analysis was performed by analyzing aliquots of 100 µL of mouse urine collected during biodistribution studies. If the collected urine volume was less than 100 µL, 1X DPBS was added in order to bring it up to a final volume of 100 µL. In cases where the radioactivity present in urine decayed to levels too low for detection by HPLC, fractions eluted from the radioHPLC were collected every 30 seconds, and the amount of radioactivity was estimated via gamma counting (Hidex Automatic Gamma Counter). The chromatogram was then reconstructed by plotting the recorded counts per minute recorded for each fraction […]
(§4) 5.2 In vitro optical imaging
(§5) Tumor tissues were harvested from male, nude, athymic mice bearing xenografts from PC3-PIP (PSMA+) and PC3-flu (PSMA-) were fixed for (24) hours in 10% neutral buffered formalin, processed and embedded into paraffin blocks. Tissues were sectioned at 5µm, dried and then deparaffinized with a 25-minute oven bake at 60°C, followed by a series of xylene and alcohol washes
(§6) Antigens were prepared in PerkinElmer’s 1X Antigen Retrieval pH 9.0 (AR900250ML) for 8 minutes in the microwave. Tissue sections were blocked with 1X Antibody Diluent/Block buffer (Akoya).
(§7) Ab-PSMA, natEu-pepa-pic2-C-Hex-KuE and DAPI staining.
(§8) Tissues were stained with Ab-PSMA (Ventana 760-6076; 11.75 µg/mL; 100uL per slide) for 30 minutes at room temperature. Slides were washed with TBS-T and secondary goat anti-rabbit was applied for 10 minutes at room temperature. Slides were washed with TBS-T and Akoya’s Opal dye 520 was applied for 10 minutes at room temperature. Antigen retrieval and blocking steps were performed again.
(§9) An aqueous solution of natEu-pepa-pic2-C-Hex-KuE (10 µM) was diluted at 1:1 with 1X Diluent/Block (Akoya) and 100 µL were applied per slide for 2 hours at room temperature. For DAPI staining, DAPI working solution (Akoya) was applied for 10 minutes at room temperature before mounting with ProLong™ Gold Antifade Mountant. Slides were imaged by Nuance Multispectral Scope at 20x objective.
(§10) 5.3 In vivo biodistribution in PSMA +/- mice models, PET-CT and SPECT imaging.
(§11) Male, nude, athymic mice were purchased from Jackson Laboratory. Ten days preceding the imaging study, mice were implanted with 1 × 10^6 cells (PC-3 PIP on the right, PC-3 flu on the left shoulder) in 100 µL of a 1:2 mixture of DPBS 1X/matrigel matrix subcutaneously.
(§12) A solution of 100 µL of labeled radiotracer was administered via tail vein injection into 8–10-week-old male nude mice (n = 4 per cohort) bearing PSMA+/- tumors.
(§13) For biodistribution studies, mice were euthanized at 2 hours (n=4) post-injection of the radio tracer. Organs were extracted, intestinal content removed, and activity assessed via a gamma counter. Biodistribution analysis values are represented as percentage of injected dose per gram of organ weight (% ID/g).

[1] = system: PC-3 PIP/flu (PSMA+/PSMA–) tumor xenografts; experiment: in vivo; conditions: 2 h post injection, n = 4, listed as [161Tb]TbIII-pepa-pic2-C-Hex-KuE
Description: as §1, §2, §3, §4, §5, §6, §7, §8, §9, §10, §11, §12, §13

[2] = system: PC-3 PIP/flu (PSMA+/PSMA–) tumor xenografts; conditions: biodistribution 2 h p.i. and SPECT 0.5-25 h
Description: Following radiochemical labeling and formulation in PBS, [^177Lu]­Lu-pepa-pic2-C-hex-KuE and [^161Tb]­Tb-pepa-pic2-C-hex-KuE were evaluated by single point biodistribution (2 h p.i.) and serial SPECT imaging at 0.5, 1, 1.5, 4, and 25 h in direct comparison with the clinically validated radiopharmaceutical [^177Lu]­Lu-PSMA-617 as well as [^161Tb]­Tb-PSMA-617 (Figure d–e, Supporting Information, Figures S52–S55, and Table S2).
Representative PET-CT (Y-86) or SPECT (Lu-177, Tb-161) images were acquired at different time points starting as early as 0.5 h and up to 25-hours post administration of radiotracer. Mice were initially anesthetized with isoflurane gas at 4% isoflurane in oxygen and maintained during scans at 2.0%. PET-CT and SPECT images were normalized to units of percentage of injected dose per cubic centimeter and presented as maximum intensity projected scan (MIPS) images.
PET-CT scans were acquired in a Siemens Inveon Hybrid MicroPET/CT Scanner (Siemens Medical Solutions USA, Inc., Knoxville, TN), and image processing and region of interest (ROI) analysis conducted using the Inveon Research Workstation analysis software. ROI analysis of the PET/CT images was used to estimate tracer uptake in major organs or tissues, and quantitative results are given as percentage of injected dose per cubic centimeter (%ID/cc). […]

[3] = 277 nm; ref 11 (SI); cited from earlier work

Q: For `COCCOCCOCCOc1ccc(C#Cc2cc(CN3CCN(Cc4cccc(C(=O)O)n4)CCN(Cc4cc(SC[C@H](N)C(=O)NCCCCCC(=O)NCCCC[C@H](NC(=O)N[C@@H](CCC(=O)O)C(=O)O)C(=O)O)cc(C(=O)O)n4)CC3)nc(C(=O)O)c2)cc1` [[161Tb]Tb-pepa-pic2-C-Hex-KuE, metal not drawn], which tissue uptake at 2 h (in vivo; PSMA- tumor, Tumor -) is on record?
A: 0.7 ± 1.59 %ID/g

Q: What about the Blood [1] of the same molecule?
A: 0.45 ± 0.06 % ID/g

Q: And the Bone [1]?
A: 0.24 ± 0.03 % ID/g

Q: What about the Heart [1] of the same molecule?
A: 0.21 ± 0.03 % ID/g

Q: And the Kidney [1]?
A: 17.89 ± 2.70 % ID/g

Q: And the “Large Intestine” value [1]?
A: 0.98 ± 1.44 % ID/g

Q: What about the Liver [1] of the same molecule?
A: 0.64 ± 0.09 % ID/g

Q: What about the Lungs [1] of the same molecule?
A: 0.50 ± 0.07 % ID/g

Q: And the Muscle [1]?
A: 0.11 ± 0.03 % ID/g

Q: And the “Small Intestine” value [1]?
A: 0.33 ± 0.37 % ID/g

Q: And the Spleen [1]?
A: 0.50 ± 0.09 % ID/g

Q: And the “Tumor +” value ([1]; PSMA+ tumor)?
A: 7.33 ± 1.59 % ID/g

Q: Which “uptake of activity in the PSMA-expressing tumor” value [2] does the source give for `COCCOCCOCCOc1ccc(C#Cc2cc(CN3CCN(Cc4cccc(C(=O)O)n4)CCN(Cc4cc(SC[C@H](N)C(=O)NCCCCCC(=O)NCCCC[C@H](NC(=O)N[C@@H](CCC(=O)O)C(=O)O)C(=O)O)cc(C(=O)O)n4)CC3)nc(C(=O)O)c2)cc1` [[177Lu]Lu-pepa-pic2-C-Hex-KuE, metal not drawn] here?
A: persistent, statistically significant uptake

Q: What about the tissue uptake at 2 h (in vivo; PSMA+ tumor, Tumor +, PSMA+ tumor) of the same molecule?
A: 4.57 ± 0.9 %ID/g

Q: And the tissue uptake at 2 h (in vivo; blood)?
A: 0.3 ± 0.1 %ID/g

Q: What about the tissue uptake at 2 h (in vivo; bone) of the same molecule?
A: 0.25 ± 0.02 %ID/g

Q: What about the tissue uptake at 2 h (in vivo; heart) of the same molecule?
A: 0.19 ± 0.07 %ID/g

Q: And the tissue uptake at 2 h (in vivo; kidney)?
A: 25.9 ± 8.51 %ID/g

Q: And the tissue uptake at 2 h (in vivo; large intestine)?
A: 0.49 ± 0.27 %ID/g

Q: What about the tissue uptake at 2 h (in vivo; liver) of the same molecule?
A: 0.5 ± 0.05 %ID/g

Q: What about the tissue uptake at 2 h (in vivo; lungs) of the same molecule?
A: 0.47 ± 0.26 %ID/g

Q: And the tissue uptake at 2 h (in vivo; muscle)?
A: 0.11 ± 0.05 %ID/g

Q: What about the tissue uptake at 2 h (in vivo; small intestine) of the same molecule?
A: 0.33 ± 0.27 %ID/g

Q: And the tissue uptake at 2 h (in vivo; spleen)?
A: 0.53 ± 0.24 %ID/g

Q: For PSMA-617, which ε277 [3] is on record?
A: 4268 M⁻¹ cm⁻¹
